Target: Flag-Mettl8 (Flag-tagged human Mettl8, wild type) (UniProt Q9H825)
Sequence (Q9H825 other isoform, or with tags, fused parts or gaps): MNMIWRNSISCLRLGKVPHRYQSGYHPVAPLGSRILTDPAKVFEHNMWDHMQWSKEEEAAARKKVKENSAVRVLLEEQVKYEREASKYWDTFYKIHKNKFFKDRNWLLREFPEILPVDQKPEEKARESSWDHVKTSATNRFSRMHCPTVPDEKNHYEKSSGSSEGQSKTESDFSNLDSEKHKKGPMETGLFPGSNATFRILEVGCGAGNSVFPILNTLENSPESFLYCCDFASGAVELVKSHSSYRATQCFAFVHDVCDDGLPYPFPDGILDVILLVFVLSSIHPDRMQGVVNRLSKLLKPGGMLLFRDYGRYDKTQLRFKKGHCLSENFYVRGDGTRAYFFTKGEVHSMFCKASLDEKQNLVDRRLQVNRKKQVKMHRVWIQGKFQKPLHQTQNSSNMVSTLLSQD

Substance: Endogenous ATM
- pS/TQ phosphorylation after 10 Gy irradiation (Flag IP, immunoblot): pS/TQ phosphorylation was detected on wild type Mettl8 upon irradiation
